{
  "source": "patent US9913914",
  "target": "Cupid B-PTEN peptide",
  "data": [
    {"protein": "PTEN protein of Dictyostelium (protein) MSNLLRVAVSKQKRRYQKNGYDLDLAYITDNIVAMGFPSEKVEGVFRNPMKDVQRFLDQYHKDHFKVYNLCSERVYDHSKFYGRVGYYPFDDHNAPQFEMIDAFCRDVDAWMKEDSKNIAVIHCKAGKGRTGLMICCWLMYCGMWKNTEDSLRFYAALRTYNQKGVTIPSQIRYVGYFGRSIRESIKYVPRNVTLKKIVLRPLPKEINLSEVQFNISVGKNCVFNSKEHNMNVVISKKKKTVVDKNKKDPKKKLTKENSEKNIDSQQQQQSQSSLSQSQQGQSSPNMQSLSASGTISSGSNVGTVNGNTLHQLGGSQFSLSDLADGNTIGNDEYISFEIGALSLAGDIRIEFTNKQDDRMFMFWVNTSFVQQLEIIPKSGLDKAHKDKNHKAFPEDFHVELTFDQLDQQQSHTTVVASAEEQTNNQHYPQSSNNVATSSSHHDNITVVASDAPQNNNNNNNLNSSNSNNATTTTTKNNISLASSQSNPVQQESNPSTTTQVSEENSAPKVEAEKIENSNASANDSETSSNSSS", "values": [
      {"measurement": "phosphorylation response of proteins to cyclic AMP (antibody detection on SDS gels)", "value": "they exhibited a much stronger initial phosphorylation response to cyclic AMP"}
    ]}
  ]
}
